The values that follow come from patent publication US7244430 (CRUCELL HOLLAND B V, dated 2007).

Experiment [1] addresses T1, recombinantly expressed purified soluble WNV E protein (strain 382-99) (West Nile virus strain 382-99, UniProt Q9Q6P4 291-696).
T1 construct: also called recombinant WNV-E protein; truncated E protein; not shown: Myc tag and His tag
T1 sequence: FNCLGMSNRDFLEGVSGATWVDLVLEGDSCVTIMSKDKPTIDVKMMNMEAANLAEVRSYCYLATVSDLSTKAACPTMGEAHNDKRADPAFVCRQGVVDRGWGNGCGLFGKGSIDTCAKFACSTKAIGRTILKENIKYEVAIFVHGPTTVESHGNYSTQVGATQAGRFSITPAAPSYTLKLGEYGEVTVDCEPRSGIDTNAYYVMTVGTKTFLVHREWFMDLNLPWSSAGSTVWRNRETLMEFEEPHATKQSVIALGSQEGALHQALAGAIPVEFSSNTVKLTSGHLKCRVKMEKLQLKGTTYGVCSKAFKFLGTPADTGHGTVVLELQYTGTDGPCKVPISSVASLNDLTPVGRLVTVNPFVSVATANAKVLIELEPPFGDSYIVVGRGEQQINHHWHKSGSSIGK
Kind of experiment: phage ELISA, coated recombinant soluble WNV E protein. (An ELISA detects its analyte on a solid surface through an enzyme-linked reagent.)

Experiment [2] concerns the target T2, mutant WNV-like particles K307E (West Nile virus strain 382-99, UniProt Q9Q6P4 291-791; Q9Q6P4 216-290).
T2 construct: also called mutant K307E
Kind of experiment: ELISA on mutant VLP.

Experiment [3] addresses T3, mutant WNV-like particles A365V (West Nile virus strain 382-99, UniProt Q9Q6P4 291-791; Q9Q6P4 216-290).
T3 construct: also called mutant A365V
Kind of experiment: ELISA on mutant VLP, normalized to wild-type VLP.

Experiment [4] deals with T4, West Nile virus strain USA99b (strain 385-99) (West Nile virus strain 385-99 (USA99b)).
T4 construct: mature; also called WNV; WN virus
Put plainly: phage ELISA, coated whole inactivated WNV.

Experiment [5] deals with T5, WNV-like particles (wild-type VLP, strain 382-99 M and E proteins) (West Nile virus strain 382-99, UniProt Q9Q6P4 291-791; Q9Q6P4 216-290).
T5 construct: also called West Nile virus-like particles; WT
Kind of experiment: titration of purified IgM on VLPs.

For experiment [6], the target named is T6, mutant WNV-like particles T332K (West Nile virus strain 382-99, UniProt Q9Q6P4 291-791; Q9Q6P4 216-290).
T6 construct: also called mutant T332K
Put plainly: ELISA on mutant VLP, normalized to wild-type VLP.

Experiment [7] deals with T1, recombinantly expressed purified …. Kind of experiment: phage ELISA, coated recombinant soluble WNV E protein. This is another data set of the same source.

B1: SC04-325 (scFv)
scFv: QMQLVQSGAEVKKPGSSVKVSCKASGDTFSSYAISWVRQAPGQGLEWMGGIFGTASYAQKFQGRVTITADESTSTAYMELSSLRSEDTAVYYCARGGMATTPGLDYWGQGTLVTVSSGTGGSGGTGSGTGGSTDIQLTQSPDSLAVSLGERATINCKSSQSVLYSSNNKNYLAWYQQKPGQPPKLLIYWASTRESGVPDRFSGSGSGTDFTLTISSLQAEDVAVYYCQQYYSTPLTFGQGTKVEIKR
Regarding B1, in experiment [1], the “OD 492 nm” value turned out to be 1.4 OD 492 nm.

B2: CR5080 (antibody, V domains shown)
VH: QVTLKESGPTLVKPTQTLTLTCTFSGFSLSTSGVGVGWIRQPPGKALEWLAVIYWNDDKLYRPSLKSRLTITKDTSKNQVVLTMTKMDPVDTATYYCAHRHRYYDISGYYRLFSDAFDIWGQGTMVTVSS
VL: QSVLTQPPSVSGAPGQRVTISCTGSSSNIGAGYDVHWYQQLPGTAPKLLIYGNSNRPSGVPDRFSGSKSGTSASLAITGLQAEDEADYYCQSYDSSLSGWAFGGGTKLTVLG
On to B2, for which the binding result in experiment [2] is “no binding”. The “% of wild-type binding” value in experiment [3] was around 37%.

B3: SC04-271 (scFv)
scFv: EVQLVETGAEVKKPGESLRISCKGSGYTFNNYWIGWVRQMPGKGLEWMGIIYPGDSDTRYSPSVQGHVTISADKSINTAYLQWSSLKASDTAVYYCARRPGYDYGFYYFDYWGQGTLVTVSSGTGGSGGTGSGTGGSTQSALTQPRSVSGSPGQSVTISCTGTSSDVGGYNYVSWYQHHPGKAPKLMIYDVSNRPLGVSNRFSGSKSGNTASLTISGLQAEDEADYYCSSYTSSSTYVFGTGTHLTVLS
On to B3, for which the “OD 492 nm” value in experiment [4] was determined as 0.984 OD 492 nm; in experiment [1], 0.608 OD 492 nm.

B4: SC04-283 (scFv)
scFv: EVQLVQSGAEVKKSGESLKISCKGSGYTFNTYWIGWVRQMPGKGLEWMGIIYPGDSDTIYSPSFQGQVTISADKSISTAYLQWSSLKASDSAMYYCARLTFRRGYSGSDSFLPPGDFDYWGQGTLVTVSSGTGGSGGTGSGTGGSTDIQMTQSPSTLSASVGDRVTITCRASQSISSWLAWYQQKPGKAPNLLIYAASSLQSGVPSRFSGSGSGTDFTLTISSLQPDDSATYYCQQYNTYPLTFGGGTKVEIKR
In the case of B4, the “OD 492 nm” value in experiment [4] amounted to 1.21 OD 492 nm; in experiment [1] it was 0.074 OD 492 nm.

B5: SC04-299 (scFv)
scFv: EVQLVETGGGVVQPGRSLRLSCAASGFTFSGYAMHWVRQAPGKGLDWVAVISYDGSEKYSADSVKGRFTISRDNSKNTLYLQMNSLRAEDTAVYYCAKESGGPIWYKYYGVDVWGQGTTVTVSSGTGGSGGTGSGTGGSTSYVLTQPPSLSAAPRQRVTISCSGSSSNIGNYGVNWYQQLPGKAPKLLIYYDDLLPSGVSDRFSGSKSGTSASLAISGLQSEDEGDYYCAAWDDTLSAWVFGGGTKLTVLG
Consider B5, for which, in experiment [4], the “OD 492 nm” value amounted to 1.07 OD 492 nm.

B6: CRM4374 (antibody)
heavy: QITLKESGPTLVKPTQTLTLTCTFSGFSLSTSGVGVGWIRQPPGKALEWLAVIYWNDDKLYRPSLKSRLTITKDTSKNQVVLTMTKMDPVDTATYYCAHRHRYYDISGYYRLFSDAFDIWGQGTMVTVSSASAPTLFPLVSCENSPSDTSSVAVGCLAQDFLPDSITFSWKYKNNSDISSTRGFPSVLRGGKYAATSQVLLPSKDVMQGTDEHVVCKVQHPNGNKEKNVPLPVIAELPPKVSVFVPPRDGFFGNPRKSKLICQATGFSPRQIQVSWLREGKQVGSGVTTDQVQAEAKESGPTTYKVTSTLTIKESDWLSQSMFTCRVDHRGLTFQQNASSMCVPDQDTAIRVFAIPPSFASIFLTKSTKLTCLVTDLTTYDSVTISWTRQNGEAVKTHTNISESHPNATFSAVGEASICEDDWNSGERFTCTVTHTDLPSPLKQTISRPKGVALHRPDVYLLPPAREQLNLRESATITCLVTGFSPADVFVQWMQRGQPLSPEKYVTSAPMPEPQAPGRYFAHSILTVSEEEWNTGETYTCVVAHEALPNRVTERTVDKSTGKPTLYNVSLVMSDTAGTCY
light: QSVLTQPPSVSGAPGQRVTISCTGSSSNIGAGYDVHWYQQLPGTAPKLLIYGNSNRPSGVPDRFSGSKSGTSASLAITGLQAEDEADYYCQSYDSSLSGSVFGGGTKLTVLGQPKAAPSVTLFPPSSEELQANKATLVCLISDFYPGAVTVAWKADSSPVKAGVETTTPSKQSNNKYAASSYLSLTPEQWKSHRSYSCQVTHEGSTVEKTVAPTECS
notes: also called IgM form of CR4374
For the molecule B6, the binding result in experiment [5] was “binds”.

B7: CR4374 (antibody)
heavy: not shown
light: B6 light
notes: also called CR374
Take B7: the binding result in experiment [2] is given as “no binding”. The “% of wild-type binding” value in experiment [6] is around 75%.

B8: SC04-311 (scFv)
scFv: EVQLVQSGGGVVQPGRSLRLSCVASGFTFSKDAMHWVRQAPGKGLEWVAVISYDGSDKHYADSVKGRVTISRDNSRKTLYLRMDSLRAEDTALYYCARGYNSGHYFDYWGQGTLITVSSGTGGSGGTGSGTGGSTQSVLTQPPSVSAAPGQKVTISCSGTSSNIGDNYVSWYQHLPGTAPKLLIYDNNKRPSGIPDRFSGSKSGTSATLGVTGLQTGDEADYYCGTWDSSLTAVVFGGGTKLTVLG
Turning to B8, the “OD 492 nm” value in experiment [4] is 1.04 OD 492 nm; in experiment [1], 1.54 OD 492 nm.

B9: SC04-289 (scFv)
scFv: QMQLVQSGAEVKKPGESLRISCKGSGYSFTSNWITWVRQMPGKGLEWMGRIDPSDSYTNYSPSFQGHVTISADKSISTAYLQWSSLKASDTAMYYCARDVVGVGASDYYYYMDVWGKGTTVTVSSGTGGSGGTGSGTGGSTEIVLTQSPGTLSLSPGETATLSCRTSQSVSSSYLGWYQQKPGQAPRLLIYGASIRATGIPARFSGSGSGTEFTLTIDSLQSEDFAVYYCQQYNNWPPITFGQGTRLEIKR
In the case of B9, the “OD 492 nm” value in experiment [4] came out at 0.759 OD 492 nm; in experiment [1], 1.39 OD 492 nm.

B10: SC04-374 (scFv)
scFv: QVTLKESGPTLVKPTQTLTLTCTFSGFSLSTSGVGVGWIRQPPGKALEWLAVIYWNDDKLYRPSLKSRLTITKDTSKNQVVLTMTKMDPVDTATYYCAHRHRYYDISGYYRLFSDAFDIWGQGTMVTVSSGTGGSGGTGSGTGGSTQSVVTQPPSVSGAPGQRVTISCTGSSSNIGAGYDVHWYQQLPGTAPKLLIYGNSNRPSGVPDRFSGSKSGTSASLAITGLQAEDEADYYCQSYDSSLSGSVFGGGTKLTVLG
Consider B10, for which the “OD 492 nm” value in experiment [1] was determined as 1.36 OD 492 nm.

B11: SC04-353 (scFv)
scFv: EVQLVQSGGGVVQPGRSLRLSCAASGFTFSNYAMHWVRQAPGKGLEWVAVISYDGGNKYYADSVKGRFTMSRDNSKNTLYLQMNSLRAEDTAVYYCARDFWSGYSMVDSYYYYMDVWGKGTTVTVSSGTGGSGGTGSGTGGSTETTLTQSPGTLSLSPGERATLSCRASQSVSNTFLAWYQQKPGQAPRLLIYGASSRATGIPDRFSGSGSGTDFTLTISRLEPEDFAAYYCQQYGSSLTFGPGTKVDIKR
With B11, the binding result in experiment [7] was “no binding”. The “OD 492 nm” value in experiment [1] is 0.099 OD 492 nm.

B12: SC04-361 (scFv)
scFv: EVQLVQSGAEVKKPGESLKISCKASGFSFSTYWIGWVRQMPGKGLEWMGIIYPADSDTRYSPSFQGQVTISADKSISTAYLQWSSLKASDTAMYYCARLRGPYYDFWNGYRETHDAFNVWGQGTMVTVSSGTGGSGGTGSGTGGSTDVVMTQSPDSLAVSLGERATINCKSSQNILDNSDNKNFLAWYQQKPGQPPKLLIYWASARESGVPDRFSGSGSGTDFTLTISSLQAEDVALYYCQQYYNTPITFGQGTRLEIKR
With B12, the binding result in experiment [7] is on record as “no binding”. Further, the “OD 492 nm” value in experiment [1] is 0.076 OD 492 nm.
